Reference: patent US20070298510A1 (CANON, published 2007)

Biological target: T1, hen egg-white lysozyme (hen, UniProt P00698 19-147)
T1 construct: In solution in phosphate-buffered saline, captured in a sandwich between the first and second peptide molecules; also called HEL; target substance 173
Assay: sandwich on TMR element: immobilized scFv, HEL, Fab on magnetic beads; magnetic read-out

T1 sequence (P00698 19-147): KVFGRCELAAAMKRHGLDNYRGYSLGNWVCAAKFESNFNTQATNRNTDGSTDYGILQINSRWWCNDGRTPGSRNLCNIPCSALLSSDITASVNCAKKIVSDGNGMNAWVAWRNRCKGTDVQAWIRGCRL

binding result: binds
B1: HyHEL10 scFv (single chain Fv of an anti-HEL antibody) (scFv)
scFv: DIVLTQSPATLSVTPGNSVSLSCRASQSIGNNLHWYQQKSHESPRLLIKYASQSISGIPSRFSGSGSGTDFTLSINSVETEDFGMYFCQQSNSWPYTFGGGTKLIITAGGGGSGGGGSGGGGSDIQLQESGPSLVKPSQTLSLTCSVTGDSITSDYWSWIRKFPGNRLEYMGYVSYSGSTYYNPSLKSRISITRDTSKNQYYLDLNSVTTEDTATYYCANWDGDYWGQGTLVTVSA
notes: Purified as a His-tag-fused polypeptide; In the assay it was immobilized on the silicon film or substrate via aminosilane and glutaraldehyde; also called scFv of the anti-HEL antibody; scFv of the HEL antibody
